{"source": "patent US6753151B1", "about": "“Interactions of Ku polypeptides and applications thereof” (Kudos Pharmaceuticals Limited, priority 1999, dated 2004)", "key": {"DNA-PKcs [1]": {"target": "T1, DNA-PKcs (Homo sapiens, UniProt P78527)", "T1 sequence (P78527 whole entry)": "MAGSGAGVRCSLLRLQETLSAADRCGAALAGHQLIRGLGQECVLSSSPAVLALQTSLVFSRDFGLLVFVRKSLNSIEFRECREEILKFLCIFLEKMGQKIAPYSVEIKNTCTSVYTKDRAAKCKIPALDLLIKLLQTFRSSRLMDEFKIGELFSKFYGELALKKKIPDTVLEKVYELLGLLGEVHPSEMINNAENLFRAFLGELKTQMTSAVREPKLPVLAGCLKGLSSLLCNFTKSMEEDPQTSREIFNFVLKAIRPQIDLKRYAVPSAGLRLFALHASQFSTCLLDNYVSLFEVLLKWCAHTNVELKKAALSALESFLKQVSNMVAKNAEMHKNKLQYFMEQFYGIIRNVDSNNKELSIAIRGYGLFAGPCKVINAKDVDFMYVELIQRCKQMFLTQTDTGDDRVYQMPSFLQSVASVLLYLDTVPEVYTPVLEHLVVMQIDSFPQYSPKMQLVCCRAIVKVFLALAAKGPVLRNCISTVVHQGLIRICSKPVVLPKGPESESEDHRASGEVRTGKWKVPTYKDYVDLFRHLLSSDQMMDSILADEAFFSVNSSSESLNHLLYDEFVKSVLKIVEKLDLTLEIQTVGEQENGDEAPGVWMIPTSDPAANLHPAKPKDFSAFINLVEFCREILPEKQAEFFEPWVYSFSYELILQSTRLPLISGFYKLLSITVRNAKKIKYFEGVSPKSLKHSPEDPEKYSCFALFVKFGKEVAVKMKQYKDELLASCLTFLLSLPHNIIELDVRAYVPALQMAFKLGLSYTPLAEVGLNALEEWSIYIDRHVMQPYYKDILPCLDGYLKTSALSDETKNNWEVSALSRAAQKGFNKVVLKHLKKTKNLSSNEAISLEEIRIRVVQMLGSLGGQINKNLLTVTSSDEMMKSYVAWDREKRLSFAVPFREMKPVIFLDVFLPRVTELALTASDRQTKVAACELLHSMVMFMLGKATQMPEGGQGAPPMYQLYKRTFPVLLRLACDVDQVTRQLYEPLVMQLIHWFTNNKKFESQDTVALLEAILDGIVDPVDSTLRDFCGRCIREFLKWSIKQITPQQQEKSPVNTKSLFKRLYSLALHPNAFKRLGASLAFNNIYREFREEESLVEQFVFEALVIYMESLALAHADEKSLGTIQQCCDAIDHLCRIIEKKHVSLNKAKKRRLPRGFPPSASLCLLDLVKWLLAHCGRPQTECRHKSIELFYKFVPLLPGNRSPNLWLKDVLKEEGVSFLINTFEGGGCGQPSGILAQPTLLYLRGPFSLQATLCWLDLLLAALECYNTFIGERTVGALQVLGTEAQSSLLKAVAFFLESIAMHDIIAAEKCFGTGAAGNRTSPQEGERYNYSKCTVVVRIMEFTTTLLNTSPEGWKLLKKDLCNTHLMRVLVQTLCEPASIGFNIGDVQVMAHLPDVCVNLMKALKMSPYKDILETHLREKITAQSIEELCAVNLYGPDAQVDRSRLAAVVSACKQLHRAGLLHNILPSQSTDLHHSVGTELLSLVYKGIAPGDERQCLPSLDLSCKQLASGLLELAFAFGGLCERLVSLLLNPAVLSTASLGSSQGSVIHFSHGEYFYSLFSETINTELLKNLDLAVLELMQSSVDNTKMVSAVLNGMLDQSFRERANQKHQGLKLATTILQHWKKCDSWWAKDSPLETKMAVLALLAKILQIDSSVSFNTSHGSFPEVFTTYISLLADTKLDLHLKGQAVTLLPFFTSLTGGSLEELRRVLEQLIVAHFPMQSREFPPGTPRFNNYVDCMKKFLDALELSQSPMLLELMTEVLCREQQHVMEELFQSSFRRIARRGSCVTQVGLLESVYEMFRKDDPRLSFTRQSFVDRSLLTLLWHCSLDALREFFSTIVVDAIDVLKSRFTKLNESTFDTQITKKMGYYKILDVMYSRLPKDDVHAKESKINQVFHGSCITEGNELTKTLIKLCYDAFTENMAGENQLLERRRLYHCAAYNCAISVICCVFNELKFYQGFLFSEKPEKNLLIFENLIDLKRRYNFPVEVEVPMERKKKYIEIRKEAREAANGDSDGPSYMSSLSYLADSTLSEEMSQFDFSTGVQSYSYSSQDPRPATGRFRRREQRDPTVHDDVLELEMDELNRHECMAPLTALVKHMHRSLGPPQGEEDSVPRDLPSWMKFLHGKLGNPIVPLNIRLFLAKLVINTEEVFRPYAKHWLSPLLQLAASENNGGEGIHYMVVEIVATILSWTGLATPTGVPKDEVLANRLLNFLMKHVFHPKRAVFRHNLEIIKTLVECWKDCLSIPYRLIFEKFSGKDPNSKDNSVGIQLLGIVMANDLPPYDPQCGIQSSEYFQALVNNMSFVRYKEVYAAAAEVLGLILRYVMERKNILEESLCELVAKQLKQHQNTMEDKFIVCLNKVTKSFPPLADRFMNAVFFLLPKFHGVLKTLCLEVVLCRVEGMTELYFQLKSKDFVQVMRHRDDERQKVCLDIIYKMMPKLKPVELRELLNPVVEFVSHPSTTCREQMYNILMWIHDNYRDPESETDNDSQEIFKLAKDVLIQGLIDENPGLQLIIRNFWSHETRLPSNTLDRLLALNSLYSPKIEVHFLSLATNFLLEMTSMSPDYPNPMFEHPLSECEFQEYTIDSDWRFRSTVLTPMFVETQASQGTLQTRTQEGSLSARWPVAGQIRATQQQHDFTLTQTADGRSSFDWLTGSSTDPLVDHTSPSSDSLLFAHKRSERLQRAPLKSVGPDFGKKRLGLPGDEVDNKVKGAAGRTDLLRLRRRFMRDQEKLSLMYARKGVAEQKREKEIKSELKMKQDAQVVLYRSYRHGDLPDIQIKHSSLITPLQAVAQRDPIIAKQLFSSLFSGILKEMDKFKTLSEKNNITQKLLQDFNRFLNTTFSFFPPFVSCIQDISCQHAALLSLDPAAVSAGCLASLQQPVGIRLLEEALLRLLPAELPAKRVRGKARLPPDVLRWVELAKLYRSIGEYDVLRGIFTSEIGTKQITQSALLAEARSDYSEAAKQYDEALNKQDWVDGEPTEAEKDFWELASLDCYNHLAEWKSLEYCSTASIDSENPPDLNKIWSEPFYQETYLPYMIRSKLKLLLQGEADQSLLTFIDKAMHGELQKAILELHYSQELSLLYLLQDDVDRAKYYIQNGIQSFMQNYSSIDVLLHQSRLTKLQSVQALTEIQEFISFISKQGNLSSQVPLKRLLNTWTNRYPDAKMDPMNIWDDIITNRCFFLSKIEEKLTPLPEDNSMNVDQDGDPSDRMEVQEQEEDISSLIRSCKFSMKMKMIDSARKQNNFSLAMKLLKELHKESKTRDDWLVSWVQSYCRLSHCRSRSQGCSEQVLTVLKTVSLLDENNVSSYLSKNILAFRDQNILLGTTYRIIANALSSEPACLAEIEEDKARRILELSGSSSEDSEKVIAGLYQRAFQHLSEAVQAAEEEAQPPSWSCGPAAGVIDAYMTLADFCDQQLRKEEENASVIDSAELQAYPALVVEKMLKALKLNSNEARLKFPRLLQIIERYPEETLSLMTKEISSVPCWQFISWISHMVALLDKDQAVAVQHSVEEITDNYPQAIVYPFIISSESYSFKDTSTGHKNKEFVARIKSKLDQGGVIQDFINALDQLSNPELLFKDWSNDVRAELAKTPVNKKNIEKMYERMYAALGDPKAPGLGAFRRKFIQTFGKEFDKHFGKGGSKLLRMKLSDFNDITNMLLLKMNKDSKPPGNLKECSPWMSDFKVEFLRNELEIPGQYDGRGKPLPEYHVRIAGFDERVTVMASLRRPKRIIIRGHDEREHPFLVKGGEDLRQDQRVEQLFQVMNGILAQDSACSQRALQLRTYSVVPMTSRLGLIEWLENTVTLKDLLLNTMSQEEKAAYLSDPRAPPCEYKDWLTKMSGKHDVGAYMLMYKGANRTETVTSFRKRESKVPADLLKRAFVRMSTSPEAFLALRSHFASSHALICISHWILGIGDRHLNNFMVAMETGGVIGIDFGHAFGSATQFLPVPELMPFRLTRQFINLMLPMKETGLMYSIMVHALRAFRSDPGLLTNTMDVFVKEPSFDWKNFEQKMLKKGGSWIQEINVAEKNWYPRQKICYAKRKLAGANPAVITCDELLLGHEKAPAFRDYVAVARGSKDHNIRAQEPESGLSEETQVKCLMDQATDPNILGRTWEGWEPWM", "assay": "Peptide interaction assay with crude HeLa cell nuclear extract", "format": "binding", "parameters": "incubated with ˜100 μg (10 μl) of HeLa Cell nuclear extract (NE); host or cells: HeLa cell nuclear extract", "procedure": "(§1) 5 Peptides with the sequence Ser-Gly-Ser-Gly (SEQ ID NO:10) as a linker to 12 amino acid residues (SEQ ID NOS:1 and 12-15) derived from the sequence of Ku80 (see FIG. 5) were generated with a biotin moiety at the N-terminus (Khiron Technologies). Each peptide (2×10^11 moles) was incubated with either 400 ng (˜10^12 moles) of purified DNA-PKcs or 100 μg of crude HeLa NE in 100 μl (final) volume of Z′ buffer (see above for buffer composition). Binding reactions were incubated for 2.75 hours at 4° C., then a 100 μl suspension of para-magnetic beads, containing 1:5 dilution of Dynabeads (Dynal) in Z′ buffer, was added for a final 0.25 hour incubation. Dynabeads are conjugated with Streptavidin. The bead-protein complexes were be retrieved from the solution using a magnet and washed 5 times with 0.5 ml of Buffer X (see above for buffer composition). Proteins retained on the beads were eluted in SDS gel-loading buffer and subjected to polyacrylamide gel eletrophoresis and silver staining.\nThe ability of each of the five peptides to retrieve proteins from a crude unfractionated HeLa cell nuclear extract was determined. […] Any proteins remaing bound to the peptide/beads was eluted in SDS-PAGE buffer, resolved on a 6% polyacrylamide gel and detected with silver-staining. […]"}, "DNA-PKcs [2]": {"target": "T1, DNA-PKcs", "assay": "Peptide interaction assay with purified DNA-PKcs", "format": "binding", "parameters": "The starting material for purification of DNA-PKcs was HeLa NE; host or cells: HeLa nuclear extract; purified in house over Q Sepharose, heparin agarose, phenyl Sepharose and Mono-S", "conditions": "50 mM and 100 mM KCl; streptavidin paramagnetic beads; silver-staining", "procedure": "as §1, with “Proteins retained on the beads were eluted in SDS gel-loading buffer and subjected to polyacrylamide gel eletrophoresis and silver staining.” left out\nThe inventors synthesised a series of peptides (Peptides A-E, SEQ ID NOS:1 and 12-15) derived in sequence from the extreme C-terminus of Ku80 (residues 609 to 733, SEQ ID NO:11: see FIG. 5 and Materials and Methods). […] The beads were recovered using a magnet, washed extensively in buffer containing the same concentration of KCl as the incubation buffer X (25 mM HEPES pH 7.5, 50 mM/100 mM KCl, 2 mM MgCl2, 0.4% NP-40), and the bound protein eluted in SDS-PAGE sample buffer, resolved on a 6% polyacrylamide gel and detected using silver-staining."}, "[3]": {"target": "T2, DNA-dependent protein kinase catalytic subunit (DNA-PKcs), human, from HeLa cell nuclear extract (human, UniProt P78527 1-4128)", "T2 construct": "mature; Used either within crude HeLa nuclear extract or as an essentially homogeneous preparation (about 1 Ku per 840 DNA-PKcs molecules); also called purified DNA-PKcs; homogeneous DNA-PKcs", "T2 sequence (P78527 whole entry)": "as above", "assay": "biotinylated peptide with purified DNA-PKcs, streptavidin magnetic beads, 50 mM or 100 mM KCl, silver stain", "procedure": "as §1, with “12–15)” for “12-15)”, “(2 ×10^11” for “(2×10^11”, “(~10^12” for “(˜10^12”, “Z'” for “Z′”"}}, "note": "Where no end group is shown, it is not given here. The star is where a group is joined. Biotin = O=C1N[C@H]2[C@H](CS[C@H]2CCCCC(=O)*)N1"}
{"molecule": "EGGDVDDLLDMI [Peptide E]", "values": [{"measurement": "proteins retrieved from HeLa nuclear extract by biotinylated peptide", "setting": "DNA-PKcs [1]; 50 mM KCl, streptavidin magnetic beads, silver-staining, western blotting", "value": "affinity purified predominantly a single protein species of high molecular weight"}, {"measurement": "depletion of DNA-PKcs from HeLa nuclear extract", "setting": "DNA-PKcs [1]; additional studies", "value": "60-70%"}, {"measurement": "binding of purified DNA-PKcs by biotinylated peptide", "setting": "DNA-PKcs [2]", "value": "interacts directly with DNA-PKcs"}]}
{"molecule": "Biotin-SGSGLAPKDKPSGDTA", "note": "[Peptide B (biotin-Ser-Gly-Ser-Gly linked to 12 residues of the Ku80 C-terminus)]", "values": [{"measurement": "binding result", "setting": "[3]", "value": "no binding"}]}
{"molecule": "Biotin-SGSGEEAKKFLAPKDK", "note": "[Peptide A (biotin-Ser-Gly-Ser-Gly linked to 12 residues of the Ku80 C-terminus)]", "values": [{"measurement": "binding result", "setting": "[3]", "value": "no binding"}]}
{"molecule": "Biotin-SGSGPSGDTAAVFEEG", "note": "[Peptide C (biotin-Ser-Gly-Ser-Gly linked to 12 residues of the Ku80 C-terminus)]", "values": [{"measurement": "binding result", "setting": "[3]", "value": "no binding"}]}
{"molecule": "Biotin-SGSGAVFEEGGDVDDL", "note": "[Peptide D (biotin-Ser-Gly-Ser-Gly linked to 12 residues of the Ku80 C-terminus)]", "values": [{"measurement": "binding result", "setting": "[3]", "value": "no binding"}]}
